Series [1] addresses T1, GUN1-FL (Arabidopsis thaliana, UniProt Q9SIC9 1-918).
T1 sequence: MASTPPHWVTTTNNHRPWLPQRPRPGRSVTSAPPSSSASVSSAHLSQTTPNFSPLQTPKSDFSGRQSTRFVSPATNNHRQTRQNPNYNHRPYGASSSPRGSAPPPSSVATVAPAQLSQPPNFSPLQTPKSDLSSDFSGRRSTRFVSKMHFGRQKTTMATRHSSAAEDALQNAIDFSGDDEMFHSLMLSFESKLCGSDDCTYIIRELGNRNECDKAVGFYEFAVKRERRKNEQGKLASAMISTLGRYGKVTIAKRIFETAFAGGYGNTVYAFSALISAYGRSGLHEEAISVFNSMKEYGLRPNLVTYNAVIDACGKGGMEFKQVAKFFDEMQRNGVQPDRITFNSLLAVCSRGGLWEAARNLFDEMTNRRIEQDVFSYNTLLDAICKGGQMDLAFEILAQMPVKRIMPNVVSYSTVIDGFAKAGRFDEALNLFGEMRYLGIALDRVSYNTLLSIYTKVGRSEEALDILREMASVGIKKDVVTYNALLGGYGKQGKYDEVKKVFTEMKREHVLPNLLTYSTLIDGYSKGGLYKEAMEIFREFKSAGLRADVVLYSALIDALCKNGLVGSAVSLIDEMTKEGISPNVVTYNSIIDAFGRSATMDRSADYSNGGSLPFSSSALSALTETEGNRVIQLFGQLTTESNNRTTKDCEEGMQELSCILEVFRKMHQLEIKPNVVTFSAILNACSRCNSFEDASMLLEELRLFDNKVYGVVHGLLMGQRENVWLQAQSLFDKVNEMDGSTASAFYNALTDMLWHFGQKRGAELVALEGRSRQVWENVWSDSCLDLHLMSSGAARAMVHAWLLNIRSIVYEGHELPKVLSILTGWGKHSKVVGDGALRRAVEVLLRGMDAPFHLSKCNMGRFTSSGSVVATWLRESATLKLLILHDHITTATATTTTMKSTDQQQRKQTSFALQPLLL
The series is described as follows: EMSA. Background: A gel shift assay detects complexes by their altered migration in electrophoresis.

The target of series [2] is T2, GUN1-PS (Arabidopsis thaliana, UniProt Q9SIC9 232-918).
T2 sequence: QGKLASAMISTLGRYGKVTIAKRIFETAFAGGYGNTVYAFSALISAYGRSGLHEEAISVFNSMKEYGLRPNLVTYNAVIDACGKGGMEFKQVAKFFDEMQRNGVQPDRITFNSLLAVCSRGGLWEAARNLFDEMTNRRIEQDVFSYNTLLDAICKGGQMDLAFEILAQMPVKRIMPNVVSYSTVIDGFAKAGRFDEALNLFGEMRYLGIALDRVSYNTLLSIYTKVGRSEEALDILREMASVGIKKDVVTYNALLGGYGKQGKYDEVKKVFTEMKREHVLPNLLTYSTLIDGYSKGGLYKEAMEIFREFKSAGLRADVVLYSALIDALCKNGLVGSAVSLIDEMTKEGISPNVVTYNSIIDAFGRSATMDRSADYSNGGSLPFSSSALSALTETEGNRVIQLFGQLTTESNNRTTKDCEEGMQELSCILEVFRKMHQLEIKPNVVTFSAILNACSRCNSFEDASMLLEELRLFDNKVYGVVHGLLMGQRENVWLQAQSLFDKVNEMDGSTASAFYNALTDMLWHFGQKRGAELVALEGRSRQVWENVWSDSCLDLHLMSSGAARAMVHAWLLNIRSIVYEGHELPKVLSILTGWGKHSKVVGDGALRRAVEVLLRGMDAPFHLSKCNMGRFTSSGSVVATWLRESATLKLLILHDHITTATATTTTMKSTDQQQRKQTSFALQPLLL
Kind of series: EMSA.

Results on 2 molecules are retold here after article doi:10.1101/2024.02.08.579428.

Regarding AGAAAAAAAUCUGUUGAUAAAUGAA (ssRNA) [ndhG_118454], in series [1], the binding result was “binds”.

AAGAGACAACCUGGCGAACUGAAAC (ssRNA) [23S_104856]: the binding result in series [2] and in series [1] was “binds” in each case.
